Tests used:
[1] = biological target: T1, LLHD3 (Mus musculus, UniProt P61372;P50481); experiment: EMSA
T1 chain: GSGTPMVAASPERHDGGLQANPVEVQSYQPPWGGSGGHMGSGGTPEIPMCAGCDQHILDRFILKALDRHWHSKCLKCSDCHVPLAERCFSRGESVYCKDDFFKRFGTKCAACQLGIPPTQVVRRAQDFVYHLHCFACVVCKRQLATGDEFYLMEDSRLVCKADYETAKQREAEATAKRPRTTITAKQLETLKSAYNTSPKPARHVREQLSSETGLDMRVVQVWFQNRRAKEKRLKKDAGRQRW

[2] = biological target: T2, 2HD (Mus musculus, UniProt P61372;P50481); experiment: SAXS
T2 chain: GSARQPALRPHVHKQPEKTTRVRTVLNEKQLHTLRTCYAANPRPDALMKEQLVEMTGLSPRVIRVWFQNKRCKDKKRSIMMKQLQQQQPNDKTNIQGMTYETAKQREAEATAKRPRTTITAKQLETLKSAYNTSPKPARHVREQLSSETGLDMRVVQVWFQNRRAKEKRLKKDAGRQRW

[3] = biological target: T3, 2HDLL (Mus musculus, UniProt P61372;P50481); experiment: SEC-MALLS, SAXS
T3 chain: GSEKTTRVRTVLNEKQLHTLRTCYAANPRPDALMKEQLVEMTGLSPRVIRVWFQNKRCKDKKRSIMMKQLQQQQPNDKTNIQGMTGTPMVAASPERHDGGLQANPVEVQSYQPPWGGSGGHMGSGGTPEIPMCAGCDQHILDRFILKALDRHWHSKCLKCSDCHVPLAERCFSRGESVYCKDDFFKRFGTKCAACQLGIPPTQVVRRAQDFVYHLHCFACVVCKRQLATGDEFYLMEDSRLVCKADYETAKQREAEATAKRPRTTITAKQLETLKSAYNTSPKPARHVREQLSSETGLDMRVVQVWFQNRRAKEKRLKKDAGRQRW

[4] = biological target: T1, LLHD3; experiment: EMSA

B1: ISL1GA (dsDNA)
DNA 1: ACCGCGTAATATCTG
DNA 2: CAGATATTACGCGGT
- binding result [1]: no binding

B2: M100 20-mer (SAXS) (dsDNA)
DNA 1: CCGCATTAGCCAAATTACGC
DNA 2: GCGTAATTTGGCTAATGCGG
- binding result [2]: binds
- binding result [3]: binds

B3: M100 (EMSA) (dsDNA)
DNA 1: CGGCCATTAGCCAAATTACGGC
DNA 2: GCCGTAATTTGGCTAATGGCCG
- Kd [4]: 1000 nM
